Assay results as given in publication PMC10148881 (2023).

B1: Ala6/C-degron peptide (sequence: YKTSAAAAAA) / Pirh2 NTD + RING (residues 1–189) [human] (parent complex)
chain 1: YKTSAAAAAA
chain 2: MAATAREDGASGQERGQRGCEHYDRGCLLKAPCCDKLYTCRLCHDNNEDHQLDRFKVKEVQCINCEKIQHAQQTCEECSTLFGEYYCDICHLFDKDKKQYHCENCGICRIGPKEDFFHCLKCNLCLAMNLQGRHKCIENVSRQNCPICLEDIHTSRVVAHVLPCGHLLHRTCYEEMLKEGYRCPLCMHS
B2: YKTSAAAA peptide / Pirh2 NTD + RING (residues 1–189) [human] (parent complex)
chain 1: YKTSAAAA
chain 2: B1 chain 2

Variants of: B1
Experiment: ITC

Variant chain 1 A8T has a Kd of 0.7 µM.

Variants of: B2
Experiment: ITC

chain 1 A6I and chain 1 A6V are within 1.5-fold of each other in Kd: 2.7 µM for the first, 1.9 µM for the second.

chain 1 A6S and chain 1 A6G are within 1.5-fold of each other in Kd: 3 µM for the first, 2.3 µM for the second.

For chain 1 A6L, the Kd was 2.8 µM.

Variants of: B2
Experiment: ITC
Remark: another data set of the same source

In the case of chain 1 A8G, the Kd is reported as 23 µM.

Variants of: B2
Experiment: ITC
Remark: another data set of the same source

First: chain 1 A7P
Second: chain 1 A7I
The Kd of the first is 2-fold higher: 26 µM for the first, 13 µM for the second. The second binds more tightly here.

Compared with chain 1 A7S, chain 1 A7V is 1.5-fold lower in Kd: 20 µM for the first, 13 µM for the second. The second binds more tightly here.

In the case of chain 1 A7G, the Kd is reported as 22 µM.

Variants of: B2
Experiment: ITC
Remark: another data set of the same source

First: chain 1 A5S
Second: chain 1 A5P
The Kd of the first is 13-fold lower: 4.5 µM for the first, 57 µM for the second. The first binds more tightly here.

With chain 1 A5G the Kd was 55 µM.
